Experimental findings from publication PMC6572788 (2019) are described below.

Assay [1] deals with T1, 2PT-NBD1 (human CFTR NBD1, residues 387–646, S492P/A534P/I539T) (human, UniProt P13569 387-646, S492P | A534P | I539T, biotin (in the ELISA; site not stated)). Nature of the assay: ELISA; printed as pEC50 7.6. (In an ELISA, binding on a coated surface is turned into a signal by an enzyme label.)
In assay [2] the target is T1, 2PT-NBD1 (human CFTR NBD1, residues …). Nature of the assay: ELISA; printed as pEC50 5.8.
For assay [3] the target is unchanged. Nature of the assay: ELISA; printed as pEC50 7.9.
Assay [4] shares this target. Briefly: ELISA; printed as pEC50 8.4.
Assay [5] shares this target. Nature of the assay: ELISA; printed as pEC50 8.7.

T1 sequence (P13569 387-646 S492P/A534P/I539T): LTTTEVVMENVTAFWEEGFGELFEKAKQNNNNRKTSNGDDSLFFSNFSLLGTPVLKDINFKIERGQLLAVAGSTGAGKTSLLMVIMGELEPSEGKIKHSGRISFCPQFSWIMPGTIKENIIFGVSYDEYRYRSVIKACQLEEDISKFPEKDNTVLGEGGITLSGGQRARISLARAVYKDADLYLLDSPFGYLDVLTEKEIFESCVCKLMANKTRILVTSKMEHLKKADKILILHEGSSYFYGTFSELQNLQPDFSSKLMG

B1: nanobody D12 (VHH)
VHH: QVQLQESGGGLVQAGSSLRLACAATGSIRSINNMGWYRQAPGKQRGMVAIITRVGNTDYADSVKGRFTISRDNAKNTVYLQMNSLKPEDTATYYCHAEITEQSRPFYLTDDYWGQGTQVTVSS
As for B1, the response in assay [1] was half-maximal at 0.0251 µM (EC50).

B2: nanobody G3a (VHH)
VHH: QVQLQESGGGLVQAGGSLRLSCTASGRAFSWYVMGWFRQAPGKEREFVATVSGNGSRRDYADSVKGRFTISRDNAKNTVYLQMNSLKPEDTAVYYCAASSTYYYTDPEKYDYWGQGTQVTVSS
With B2, in assay [2], the 50% effective concentration (EC50) – broadly, the midpoint of the concentration-response curve – was found to be 1.58 µM.

B3: nanobody T2a (VHH)
VHH: QVQLQESGGGLVQAGGSLRLSCAASGSIFRIDAMGWYRQAPGKQRELVAHSTSGGSTDYADSVKGRFTISRDNAKNTVYLQMNSLKPEDTAVYYCNADVRTRWYASNNYWGQGTQVTVSS
For B3, the EC50 in assay [3] came out at 0.0126 µM.

B4: nanobody T4 (VHH)
VHH: QVQLQESGGGLVQAGGSLRLSCAASGSTFAIIAMGWYRQAPGKQRELVAVISTGDTRYADSVKGRFTISRDNAKNTVYLQMDSLRPEDTAVYYCNAAVQVRDYRNYWGQGTQVTVSS
In the case of B4, a half-maximal response in assay [4] (EC50) required 0.00398 µM.

B5: nanobody T27 (VHH)
VHH: QVQLQESGGGLEQPGGSLRLSCATSGVIFGINAMGWYRQAPGKQRELVATFTSGGSTNYADFVEGRFTISRDNAKNTVYLQMNGLRPEDTAVYYCHATVVVSRYGLTYDYWGQGTQVTVSS
B5 came in with an EC50 in assay [5] of 0.002 µM.

B6: nanobody T8 (VHH)
VHH: QVQLQESGGGLVQPGGSLRLSCAASGSTSSINAMGWYRQAPGKQREPVAISSSGGDTRYAEPVKGRFTISRDNAQNKVYLQMNSLKPEDTAVYYCWLNWGRTSVNSWGQGTQVTVSS
On to B6, for which the half-maximal effective concentration (EC50) in assay [3] is 0.0126 µM.
